Holding throughout (assay): Kd (EC50 corrected by depletion factor)
One data set addresses T1, TSNAX (UniProt Q99598).
T1 sequence: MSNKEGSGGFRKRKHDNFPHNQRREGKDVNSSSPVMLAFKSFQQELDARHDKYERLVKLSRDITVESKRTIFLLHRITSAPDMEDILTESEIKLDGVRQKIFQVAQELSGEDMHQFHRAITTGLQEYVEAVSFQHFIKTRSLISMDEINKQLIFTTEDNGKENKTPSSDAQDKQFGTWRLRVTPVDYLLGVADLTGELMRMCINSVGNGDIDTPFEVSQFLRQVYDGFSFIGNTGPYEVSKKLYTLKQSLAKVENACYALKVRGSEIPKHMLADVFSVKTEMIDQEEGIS
The method, boiled down:
(§1)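 Kd was calculated as EC50, taken from a four-parameter log-logistic fit, multiplied by a protein-dependent depletion factor. The assay used HEK293-FT lysate (2.5 mg protein/well) pre-incubated for 1 h at 4°C with free RNA oligos (0 nM to 30 μM), then incubated for 30 min at 4°C with the matching oligos bound through a 5′-amino-C6 linker to NHS-Sepharose beads. Bound proteins were measured by label-free LC-MS/MS and normalised to the control.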

The target in a further data set is T2, ZRANB2 (UniProt O95218).
T2 sequence: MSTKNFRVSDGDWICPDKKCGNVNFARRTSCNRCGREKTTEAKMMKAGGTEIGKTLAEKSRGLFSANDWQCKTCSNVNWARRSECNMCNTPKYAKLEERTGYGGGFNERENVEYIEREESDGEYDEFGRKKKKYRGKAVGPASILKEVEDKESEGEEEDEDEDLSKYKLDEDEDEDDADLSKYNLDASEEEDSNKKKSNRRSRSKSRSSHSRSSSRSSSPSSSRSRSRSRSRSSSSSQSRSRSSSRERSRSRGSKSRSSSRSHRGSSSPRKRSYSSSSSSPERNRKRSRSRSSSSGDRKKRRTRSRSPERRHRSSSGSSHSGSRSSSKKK
The method, boiled down:
as §1

In another data set the target is T3, HNRNPR (UniProt O43390).
T3 sequence: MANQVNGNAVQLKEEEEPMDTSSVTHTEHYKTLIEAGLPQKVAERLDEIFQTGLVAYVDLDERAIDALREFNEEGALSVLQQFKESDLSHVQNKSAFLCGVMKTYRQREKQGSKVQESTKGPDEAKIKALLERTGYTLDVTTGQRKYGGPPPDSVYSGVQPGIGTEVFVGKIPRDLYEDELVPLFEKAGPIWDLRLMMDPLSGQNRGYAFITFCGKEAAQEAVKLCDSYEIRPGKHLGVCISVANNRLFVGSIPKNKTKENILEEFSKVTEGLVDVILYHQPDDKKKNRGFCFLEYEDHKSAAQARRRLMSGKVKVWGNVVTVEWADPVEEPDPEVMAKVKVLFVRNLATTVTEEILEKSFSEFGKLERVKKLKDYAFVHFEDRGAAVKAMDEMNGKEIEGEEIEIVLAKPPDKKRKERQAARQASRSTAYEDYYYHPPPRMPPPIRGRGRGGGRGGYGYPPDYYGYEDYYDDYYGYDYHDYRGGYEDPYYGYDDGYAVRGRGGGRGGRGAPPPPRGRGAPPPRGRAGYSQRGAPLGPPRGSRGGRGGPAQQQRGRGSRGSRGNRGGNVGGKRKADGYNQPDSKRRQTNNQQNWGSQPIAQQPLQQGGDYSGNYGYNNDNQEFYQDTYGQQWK
Put shortly:
as §1

The next data set addresses GNB2L1 (UniProt P63244). The method, boiled down: as §1
The target of another data set is T4, DHX37 (UniProt Q8IY37).
T4 sequence: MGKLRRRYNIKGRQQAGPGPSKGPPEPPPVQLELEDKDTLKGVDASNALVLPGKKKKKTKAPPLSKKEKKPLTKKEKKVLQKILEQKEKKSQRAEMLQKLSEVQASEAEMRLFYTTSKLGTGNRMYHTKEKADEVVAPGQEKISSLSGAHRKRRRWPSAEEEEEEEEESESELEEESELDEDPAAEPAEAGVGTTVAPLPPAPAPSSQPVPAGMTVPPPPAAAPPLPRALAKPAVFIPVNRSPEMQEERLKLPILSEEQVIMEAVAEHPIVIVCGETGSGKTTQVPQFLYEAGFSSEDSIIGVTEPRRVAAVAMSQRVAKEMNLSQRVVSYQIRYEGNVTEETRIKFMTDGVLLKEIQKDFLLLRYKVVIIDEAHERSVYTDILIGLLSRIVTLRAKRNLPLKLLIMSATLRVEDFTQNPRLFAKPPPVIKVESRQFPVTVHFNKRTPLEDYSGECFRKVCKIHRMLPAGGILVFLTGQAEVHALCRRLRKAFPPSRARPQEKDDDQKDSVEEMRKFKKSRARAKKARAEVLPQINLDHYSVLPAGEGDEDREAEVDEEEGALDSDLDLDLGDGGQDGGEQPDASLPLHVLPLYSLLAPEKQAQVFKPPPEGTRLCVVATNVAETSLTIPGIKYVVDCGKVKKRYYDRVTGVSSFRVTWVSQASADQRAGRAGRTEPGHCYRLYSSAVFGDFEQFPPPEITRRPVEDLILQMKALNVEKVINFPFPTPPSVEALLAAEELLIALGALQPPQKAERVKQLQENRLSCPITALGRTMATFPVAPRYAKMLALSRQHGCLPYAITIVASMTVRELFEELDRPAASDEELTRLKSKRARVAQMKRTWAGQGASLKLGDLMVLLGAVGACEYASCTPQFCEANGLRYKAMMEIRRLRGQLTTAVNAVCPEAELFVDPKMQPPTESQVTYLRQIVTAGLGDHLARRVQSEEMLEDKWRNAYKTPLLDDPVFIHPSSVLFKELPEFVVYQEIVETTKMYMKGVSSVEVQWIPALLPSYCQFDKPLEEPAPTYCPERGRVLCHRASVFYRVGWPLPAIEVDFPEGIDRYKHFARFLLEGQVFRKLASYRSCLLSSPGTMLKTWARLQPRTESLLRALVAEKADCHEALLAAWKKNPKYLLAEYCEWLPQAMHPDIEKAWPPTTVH
The method, boiled down: as §1

The next data set deals with MRPS25 (UniProt P82663). The method, boiled down:
as §1

For a further data set, the target named is ATIC (UniProt P31939). Put shortly:
as §1

Chain of ATIC (P31939 whole entry, looked up): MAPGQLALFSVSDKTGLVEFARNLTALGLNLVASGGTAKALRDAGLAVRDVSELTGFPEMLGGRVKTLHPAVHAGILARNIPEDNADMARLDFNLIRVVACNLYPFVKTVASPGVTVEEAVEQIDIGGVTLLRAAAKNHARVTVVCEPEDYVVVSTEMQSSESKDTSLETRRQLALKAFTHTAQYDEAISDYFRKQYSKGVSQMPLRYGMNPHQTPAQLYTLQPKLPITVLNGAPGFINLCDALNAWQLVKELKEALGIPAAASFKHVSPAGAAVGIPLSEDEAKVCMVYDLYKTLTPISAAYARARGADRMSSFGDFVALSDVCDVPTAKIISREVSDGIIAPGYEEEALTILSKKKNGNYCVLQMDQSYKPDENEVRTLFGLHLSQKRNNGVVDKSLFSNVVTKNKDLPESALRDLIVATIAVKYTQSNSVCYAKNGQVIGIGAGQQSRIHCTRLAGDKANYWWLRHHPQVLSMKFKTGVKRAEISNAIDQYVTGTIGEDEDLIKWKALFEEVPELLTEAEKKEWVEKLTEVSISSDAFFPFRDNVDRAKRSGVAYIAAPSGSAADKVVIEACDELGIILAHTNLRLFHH

As a reminder, the Kd is the concentration at which binding is half-saturated. Turning to AAUAAA, the Kd with TSNAX came out at 0.00596 µM; with ZRANB2, 0.217 µM; in the data set with HNRNPR, 0.677 µM.
As for CUGUCCU, the Kd with GNB2L1 came out at 0.808 µM.
Take UAUUUAU: the Kd amounted to 3.37 µM with DHX37, 0.0124 µM in the data set with MRPS25 and 0.523 µM with ATIC.

The values are drawn from the supplement of paper PMC6379048.
